In patent US20250327089A1 one finds EC50 data, which are given here for one substance.

The experiment addresses target receptor on brush border membrane vesicles (BBMVs) from C. includens (Pseudoplusia includens (C. includens)).

The term EC50 denotes the concentration giving half of the maximal effect. Consider “PtIP-65Aa polypeptide (Pteridophyta Insecticidal Protein-65Aa)”, for which the EC50 was found to be 14 nM.
